Results from patent US20250320252A1 (Scripps Research, published 2025).
Bridge positions count the residues as written; N and C are the ends. Square brackets hold non-standard residues; d marks the D form. Ends that are not written are not given here. C20L5A = not defined here; Nle = CCCC[C@H](N)C(=O)O; K4 = not defined here; K5 = not defined here; Aib = CC(C)(N)C(=O)O

T1: human GIP receptor (human, UniProt P48546 22-466)
T1 sequence (looked up): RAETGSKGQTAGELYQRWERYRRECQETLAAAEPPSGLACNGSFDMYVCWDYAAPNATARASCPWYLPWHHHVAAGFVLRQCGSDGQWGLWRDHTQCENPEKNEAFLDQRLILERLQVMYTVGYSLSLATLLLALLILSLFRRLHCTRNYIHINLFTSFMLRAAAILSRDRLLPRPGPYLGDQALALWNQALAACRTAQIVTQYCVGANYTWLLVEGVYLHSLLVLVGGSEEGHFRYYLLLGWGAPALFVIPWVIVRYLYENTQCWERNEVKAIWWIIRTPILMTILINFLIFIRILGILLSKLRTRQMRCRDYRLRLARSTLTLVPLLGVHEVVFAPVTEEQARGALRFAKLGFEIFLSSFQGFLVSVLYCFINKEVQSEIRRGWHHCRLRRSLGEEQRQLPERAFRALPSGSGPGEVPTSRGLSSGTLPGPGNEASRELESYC


These binders were tested against T1, human GIP receptor (assay: cell-based or functional assay).

In order of falling “EC50 of receptor-mediated cAMP synthesis, GIPR (nM), 02/19” value:
1. Y[Aib]EGTYTNDYSIYLDKCAA[Aib]EFVCWLIAGGPSSGAPPPS-NH2 (linker 17-24 via C20L5A; not fully specified; reading uncertain) [6Y, 8N, 27I, C(17-24)-C20L5A]  2.48 nM
2. Y[Aib]EGTYTSDYSIYCDKQAA[Aib]CFVNWLIAGGPSSGAPPPS-NH2 (linker 14-21 via C20L5A; not fully specified; reading uncertain) [6Y, 27I, C(14-21)-C20L5A]  0.5 nM
3. Y[Aib]EGTYTSDYSIYLDKCAA[Aib]EFVCWLIAGGPSSGAPPPS-NH2 (linker 17-24 via C20L5A; not fully specified; reading uncertain) [6Y, 27I, C(17-24)-C20L5A]  0.27 nM

In order of falling “EC50 of receptor-mediated cAMP synthesis, GIPR (nM), 03/26” value:
1. Y[Aib]EGTYTNDYSIYLDKCAA[Aib]EFVCWLIAGGPSSGAPPPS-NH2 (linker 17-24 via C20L5A; not fully specified; reading uncertain) [6Y, 8N, 27I, C(17-24)-C20L5A]  3.29 nM
2. Y[Aib]EGTYTSDYSIYCDKQAA[Aib]CFVNWLIAGGPSSGAPPPS-NH2 (linker 14-21 via C20L5A; not fully specified; reading uncertain) [6Y, 27I, C(14-21)-C20L5A]  0.6 nM
3. Y[Aib]EGTYTSDYSIYLDKCAA[Aib]EFVCWLIAGGPSSGAPPPS-NH2 (linker 17-24 via C20L5A; not fully specified; reading uncertain) [6Y, 27I, C(17-24)-C20L5A]  0.25 nM

In order of falling “EC50 of receptor-mediated cAMP synthesis, GIPR (nM), average” value:
1. Y[Aib]EGTYTNDYSIYLDKCAA[Aib]EFVCWLIAGGPSSGAPPPS-NH2 (linker 17-24 via C20L5A; not fully specified; reading uncertain) [6Y, 8N, 27I, C(17-24)-C20L5A]  2.88 nM
2. Y[Aib]EGTYTSDYSIYCDKQAA[Aib]CFVNWLIAGGPSSGAPPPS-NH2 (linker 14-21 via C20L5A; not fully specified; reading uncertain) [6Y, 27I, C(14-21)-C20L5A]  0.56 nM
3. Y[Aib]EGTYTSDYSIYLDKCAA[Aib]EFVCWLIAGGPSSGAPPPS-NH2 (linker 17-24 via C20L5A; not fully specified; reading uncertain) [6Y, 27I, C(17-24)-C20L5A]  0.26 nM

In order of falling “EC50 of receptor-mediated cAMP synthesis, GIPR (nM), 03/25” value:
1. Y[Aib]EGTYTSDYSIYCDKQAA[Aib]CFVNWLIAGGPSSGAPPPS-NH2 (linker 14-21 via C20L5A; not fully specified; reading uncertain) [6Y, 27I, C(14-21)-C20L5A]  0.58 nM
2. Y[Aib]EGTYTSDYSIYLDKCAA[Aib]EFVCWLIAGGPSSGAPPPS-NH2 (linker 17-24 via C20L5A; not fully specified; reading uncertain) [6Y, 27I, C(17-24)-C20L5A]  0.27 nM

Each binder was assayed against T2, human GLP-1 receptor (human, UniProt P43220 24-463) (assay: cell-based or functional assay).

In order of rising “EC50 of receptor-mediated cAMP synthesis, GLP1R (nM), 02/19” value:
1. Y[Aib]EGTYTSDYSIYCDKQAA[Aib]CFVNWLIAGGPSSGAPPPS-NH2 (linker 14-21 via C20L5A; not fully specified; reading uncertain) [6Y, 27I, C(14-21)-C20L5A]  0.04 nM
2. Y[Aib]EGTYTSDYSIYLDKCAA[Aib]EFVCWLIAGGPSSGAPPPS-NH2 (linker 17-24 via C20L5A; not fully specified; reading uncertain) [6Y, 27I, C(17-24)-C20L5A]  0.05 nM
3. Y[Aib]EGTYTNDYSIYLDKCAA[Aib]EFVCWLIAGGPSSGAPPPS-NH2 (linker 17-24 via C20L5A; not fully specified; reading uncertain) [6Y, 8N, 27I, C(17-24)-C20L5A]  0.06 nM

In order of falling “EC50 of receptor-mediated cAMP synthesis, GLP1R (nM), 3/25” value:
1. Y[Aib]EGTYTNDYSIYLDKCAA[Aib]EFVCWLIAGGPSSGAPPPS-NH2 (linker 17-24 via C20L5A; not fully specified; reading uncertain) [6Y, 8N, 27I, C(17-24)-C20L5A]  0.11 nM
2. Y[Aib]EGTYTSDYSIYLDKCAA[Aib]EFVCWLIAGGPSSGAPPPS-NH2 (linker 17-24 via C20L5A; not fully specified; reading uncertain) [6Y, 27I, C(17-24)-C20L5A]  0.07 nM
3. Y[Aib]EGTYTSDYSIYCDKQAA[Aib]CFVNWLIAGGPSSGAPPPS-NH2 (linker 14-21 via C20L5A; not fully specified; reading uncertain) [6Y, 27I, C(14-21)-C20L5A]  0.07 nM

In order of falling “EC50 of receptor-mediated cAMP synthesis, GLP1R (nM), 03/26” value:
1. Y[Aib]EGTYTNDYSIYLDKCAA[Aib]EFVCWLIAGGPSSGAPPPS-NH2 (linker 17-24 via C20L5A; not fully specified; reading uncertain) [6Y, 8N, 27I, C(17-24)-C20L5A]  0.07 nM
2. Y[Aib]EGTYTSDYSIYCDKQAA[Aib]CFVNWLIAGGPSSGAPPPS-NH2 (linker 14-21 via C20L5A; not fully specified; reading uncertain) [6Y, 27I, C(14-21)-C20L5A]  0.07 nM
3. Y[Aib]EGTYTSDYSIYLDKCAA[Aib]EFVCWLIAGGPSSGAPPPS-NH2 (linker 17-24 via C20L5A; not fully specified; reading uncertain) [6Y, 27I, C(17-24)-C20L5A]  0.06 nM

In order of falling “EC50 of receptor-mediated cAMP synthesis, GLP1R (nM), average” value:
1. Y[Aib]EGTYTNDYSIYLDKCAA[Aib]EFVCWLIAGGPSSGAPPPS-NH2 (linker 17-24 via C20L5A; not fully specified; reading uncertain) [6Y, 8N, 27I, C(17-24)-C20L5A]  0.08 nM
2. Y[Aib]EGTYTSDYSIYLDKCAA[Aib]EFVCWLIAGGPSSGAPPPS-NH2 (linker 17-24 via C20L5A; not fully specified; reading uncertain) [6Y, 27I, C(17-24)-C20L5A]  0.06 nM
3. Y[Aib]EGTYTSDYSIYCDKQAA[Aib]CFVNWLIAGGPSSGAPPPS-NH2 (linker 14-21 via C20L5A; not fully specified; reading uncertain) [6Y, 27I, C(14-21)-C20L5A]  0.06 nM

Target: T1, human GIP receptor
Experiment: cell-based or functional assay
Remark: another data set of the same source

In order of falling “EC50 [nM] of receptor-mediated cAMP synthesis” value:
1. H-Y[Aib]EGTFHSDYDIYKDKQAA[Nle]KFVAWLLAGGPSSGAPPPS-NH2 (linker 14-21 via K5; not fully specified; reading uncertain) [ZA-42 - K5]  303 nM
2. H-Y[Aib]EGTFHSDYDIYKDKQAA[Nle]KFVAWLLAGGPSSGAPPPS-NH2 (linker 14-21 via K4; not fully specified; reading uncertain) [ZA-42 - K4]  20.4 nM
3. H-Y[Aib]EGTFHSDYDIYKDKQAA[Aib]KFVQWLLAGGPSSGAPPPS-NH2 (bridge 14-21 via K5; reading uncertain) [ZA-41 - K5]  12.6 nM
4. H-Y[Aib]EGTFT[dS]DY[dS]IYKDKQAA[Nle]KFVAWLLAGGPSSGAPPPS-NH2 (linker 14-21 via K4; not fully specified; reading uncertain) [ZA-43 - K4]  11.3 nM
5. H-Y[Aib]EGTFHSDYDIYKDKQAA[Aib]KFVQWLLAGGPSSGAPPPS-NH2 (bridge 14-21 via K4; reading uncertain) [ZA-41 - K4]  5.31 nM
6. Y[Aib]EGTFTSDYSIYKDKQAA[Aib]KFVNWLLAGGPSSGAPPPS-NH2 (bridge 14-21 via K5; reading uncertain) [mCLZ715]  0.02 nM

Target: T2, human GLP-1 receptor
Experiment: cell-based or functional assay
Remark: another data set of the same source

In order of falling “EC50 [nM] of receptor-mediated cAMP synthesis” value:
1. H-Y[Aib]EGTFHSDYDIYKDKQAA[Nle]KFVAWLLAGGPSSGAPPPS-NH2 (linker 14-21 via K5; not fully specified; reading uncertain) [ZA-42 - K5]  ~13700 nM
2. H-Y[Aib]EGTFHSDYDIYKDKQAA[Aib]KFVQWLLAGGPSSGAPPPS-NH2 (bridge 14-21 via K5; reading uncertain) [ZA-41 - K5]  83.9 nM
3. H-Y[Aib]EGTFHSDYDIYKDKQAA[Nle]KFVAWLLAGGPSSGAPPPS-NH2 (linker 14-21 via K4; not fully specified; reading uncertain) [ZA-42 - K4]  18.8 nM
4. H-Y[Aib]EGTFHSDYDIYKDKQAA[Aib]KFVQWLLAGGPSSGAPPPS-NH2 (bridge 14-21 via K4; reading uncertain) [ZA-41 - K4]  13.8 nM
5. H-Y[Aib]EGTFT[dS]DY[dS]IYKDKQAA[Nle]KFVAWLLAGGPSSGAPPPS-NH2 (linker 14-21 via K4; not fully specified; reading uncertain) [ZA-43 - K4]  1.32 nM
6. Y[Aib]EGTFTSDYSIYKDKQAA[Aib]KFVNWLLAGGPSSGAPPPS-NH2 (bridge 14-21 via K5; reading uncertain) [mCLZ715]  0.02 nM
